The target of one test is T1, MED16 (mouse (Mus musculus; endogenous in CH12), UniProt Q6PGF3 1-828).
T1 construct: MED16, Mus musculus, endogenous lower Tail subunit of Mediator; source: endogenous, CH12 mouse B lymphoma nuclear extract; immunopurified as part of Mediator (FLAG M2 agarose, FLAG peptide elution)
T1 sequence (looked up): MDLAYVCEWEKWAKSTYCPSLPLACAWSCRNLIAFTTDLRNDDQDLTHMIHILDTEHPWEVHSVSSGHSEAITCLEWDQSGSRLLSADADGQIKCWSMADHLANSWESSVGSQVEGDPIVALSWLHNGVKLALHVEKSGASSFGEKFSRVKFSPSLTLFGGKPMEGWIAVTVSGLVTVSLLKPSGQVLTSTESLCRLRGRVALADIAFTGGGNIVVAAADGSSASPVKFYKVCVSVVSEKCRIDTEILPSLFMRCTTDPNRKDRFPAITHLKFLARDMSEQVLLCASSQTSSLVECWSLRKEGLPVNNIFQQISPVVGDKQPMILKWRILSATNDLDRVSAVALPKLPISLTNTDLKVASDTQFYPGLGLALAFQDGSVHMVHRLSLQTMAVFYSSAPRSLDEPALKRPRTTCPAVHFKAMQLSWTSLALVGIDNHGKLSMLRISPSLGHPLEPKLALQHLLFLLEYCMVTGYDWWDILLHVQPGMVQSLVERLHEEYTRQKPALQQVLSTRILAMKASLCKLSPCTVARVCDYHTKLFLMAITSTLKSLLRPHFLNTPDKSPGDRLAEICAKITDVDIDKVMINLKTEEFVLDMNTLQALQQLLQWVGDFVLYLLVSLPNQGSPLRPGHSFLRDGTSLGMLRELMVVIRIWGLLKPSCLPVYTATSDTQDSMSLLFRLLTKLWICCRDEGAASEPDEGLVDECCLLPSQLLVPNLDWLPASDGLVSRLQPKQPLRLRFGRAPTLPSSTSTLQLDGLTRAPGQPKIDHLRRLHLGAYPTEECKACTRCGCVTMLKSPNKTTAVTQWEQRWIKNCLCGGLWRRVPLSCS
In words: cryo-EM structure; endogenous mouse Mediator immunopurified from CH12 nuclear extract through 3×FLAG-MED19 or 3×FLAG-MED25; eluted in 50 mM HEPES pH 7.9, 100 mM KCl, 5% glycerol, 1 mM EDTA, 0.005% NP-40; map at 4.0 Å overall, focused refinement of the MED1 and knob/hook ends (6-10 Å). As to conditions: both partners purified.

The next test has as its target T2, MED23 (mouse (Mus musculus; endogenous in CH12), UniProt Q80YQ2 1-1367).
T2 construct: MED23, Mus musculus, endogenous lower Tail subunit of Mediator; Model building started from the X-ray structure of human MED23 (PDB 6H02); source: endogenous, CH12 mouse B lymphoma nuclear extract; immunopurified as part of Mediator (FLAG M2 agarose, FLAG peptide elution)
T2 sequence (looked up): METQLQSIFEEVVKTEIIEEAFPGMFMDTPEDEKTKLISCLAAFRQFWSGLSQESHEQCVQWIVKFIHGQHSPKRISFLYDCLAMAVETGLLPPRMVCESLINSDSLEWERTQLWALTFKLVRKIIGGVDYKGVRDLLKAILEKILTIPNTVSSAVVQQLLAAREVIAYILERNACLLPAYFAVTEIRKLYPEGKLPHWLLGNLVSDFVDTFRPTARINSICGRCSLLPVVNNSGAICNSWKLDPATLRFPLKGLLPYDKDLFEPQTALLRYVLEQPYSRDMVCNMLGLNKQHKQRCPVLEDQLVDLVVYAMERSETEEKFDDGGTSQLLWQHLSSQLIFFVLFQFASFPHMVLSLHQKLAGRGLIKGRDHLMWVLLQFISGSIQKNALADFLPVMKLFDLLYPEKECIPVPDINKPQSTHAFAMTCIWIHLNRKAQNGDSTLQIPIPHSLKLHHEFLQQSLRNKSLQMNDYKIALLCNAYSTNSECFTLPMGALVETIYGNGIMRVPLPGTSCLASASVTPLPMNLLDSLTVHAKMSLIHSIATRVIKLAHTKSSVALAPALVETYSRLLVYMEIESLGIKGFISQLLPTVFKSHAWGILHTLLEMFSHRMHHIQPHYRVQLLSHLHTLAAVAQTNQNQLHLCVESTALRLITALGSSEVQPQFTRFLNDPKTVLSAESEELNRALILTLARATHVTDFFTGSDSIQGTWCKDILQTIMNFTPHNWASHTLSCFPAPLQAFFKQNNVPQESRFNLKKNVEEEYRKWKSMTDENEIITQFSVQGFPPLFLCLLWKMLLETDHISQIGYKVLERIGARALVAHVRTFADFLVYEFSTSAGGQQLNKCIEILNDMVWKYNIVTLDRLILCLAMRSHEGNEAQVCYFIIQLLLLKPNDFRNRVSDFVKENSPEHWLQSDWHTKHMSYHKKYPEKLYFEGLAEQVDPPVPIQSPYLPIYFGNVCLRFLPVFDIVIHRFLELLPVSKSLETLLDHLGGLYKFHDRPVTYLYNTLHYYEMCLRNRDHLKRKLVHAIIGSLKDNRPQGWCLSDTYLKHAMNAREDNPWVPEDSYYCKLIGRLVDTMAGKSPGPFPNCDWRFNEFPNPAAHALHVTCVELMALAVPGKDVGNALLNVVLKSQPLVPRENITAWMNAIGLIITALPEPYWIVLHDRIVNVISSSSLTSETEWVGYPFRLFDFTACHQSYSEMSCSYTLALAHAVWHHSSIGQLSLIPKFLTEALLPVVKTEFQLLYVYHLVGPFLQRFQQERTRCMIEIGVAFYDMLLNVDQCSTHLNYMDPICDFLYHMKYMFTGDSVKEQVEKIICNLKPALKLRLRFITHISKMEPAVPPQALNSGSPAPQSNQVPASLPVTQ
The description is as above. The conditions noted are these: both partners purified.

B1: MED15 (natural protein, mouse (Mus musculus; endogenous in CH12), UniProt Q924H2 1-789, looked up)
chain: MDVSGQETDWRSAAFRQKLVSQIEDAMRKAGVAHSKSSKDMESHVFLKAKTRDEYLSLVARLIIHFRDIHNKKSQASVSDPMNALQSLTGGPTPGAAGIGMPPRGPGQSLGGMGGLGAMGQPLPLSGQPPPGTSGMAPHGMAVVSTATPQTQLQLQQVALQQQQQQQQQQQFQQQQAALQQQQQQQQQQQQQQQFQAQQNAMQQQFQAVVQQQQLQQQQQQQHLIKLHHQSQQQQIQQQQLQRMAQLQLQQQQQQQQQQALQAQPPMQQPSMQQPQPPPSQALPQQLSQLHHPQHHQPPPQAQQSPIAQNQPPQIPPQSQSQPLVSQAQALPGPMLYAAQQQLKFVRAPMVVQQPQVQPQVQQVQPQVQPQAAVQAAQSAQMVAPGVQMIAEALAQGGMHVRARFPPTSTMSAGPSSSISLGGQPTTQVSQSSLTMLSSPSPGQQVQTPQSMPPPPQPSPQPGSQPNSNVSSGPAPSPSSFLPSPSPQPSQSPVTARTPQNFSVPSPGPLNTPVNPSSVMSPAGSSQAEEQQYLDKLKQLSKYIEPLRRMINKIDKNEDRKKDLSKMKSLLDILTDPSKRCPLKTLQKCEIALEKLKNDMAVPTPPPPPVLPTKQQDLCQPLLDAVLANIRSPVFNHSLYRTFVPAMMAIHGPPIVSPVVCSRKRRFEEDERQSIPNVLQGEVARLDPKFLVNLDPSHCSNNGTVHLICKLDDKDLPSVPPLELSVPADYPAQSPMWIDRQWQYDANPFLQSVHRCMTSRLLQLPDKHSVTALLNTWAQSIHQACLSAA
notes: MED15, Mus musculus, endogenous lower Tail subunit of Mediator; only the C-terminal portion (from residue 620) is seen in the map; source: endogenous, CH12 mouse B lymphoma nuclear extract; immunopurified as part of Mediator (FLAG M2 agarose, FLAG peptide elution)
For the molecule B1, the binding result in the test with MED16 and in the test with MED23 was “binds” each time.

B2: MED25 (natural protein, mouse (Mus musculus; endogenous in CH12), UniProt Q8VCB2 1-745, looked up)
chain: MVPGSEGPARAGGLVADVVFVIEGTANLGPYFEELRKHYLLPAIEYFNGGPPAETDFGGDYGGTQYSLVVFNTVDCAPESYVQCHAPTSSAYEFVTWLDGIKFMGGGGESCSLIAEGLSTALQLFDDFKKMREQIGQTHRVCLLICNSPPYLLPAVESTTYSGCTTESLVQKIGERGIHFSIVSPRKLPALRLLFEKAAPPALLEPLQQPADVSQDPRHMVLVRGLVLPVGGSSTSGSLQTKQAVPLPPAPASAATLSAAPPQALPPVPPQYQVPGNLSAAQVAAQNAVEAAKSQKAGLGPRFSPINPLQQAAPGVGPPFSQAPAPPLAPVPPGAPKPPPASQPSLVSTVAPGPVLAAPAQPGAPSLAGTVTPGGVNGPSAAQLGGPALGGQQSVSNKLLAWSGVLEWQEKPKPASVDANTKLTRSLPCQVYVNHGENLKTEQWPQKLIMQLIPQQLLTTLGPLFRNSRMVQFHFTNKDLESLKGLYRIMGNGFAGCVHFPHTAPCEVRVLMLLYSSKKKIFMGLIPYDQSGFVNGIRQVITNHKQVQQQKLEQQRGMGAQQAPPVLGPILEEQARPPQNLLQLRAPQPQPQGAVGASAATGQPQPQGATQAPTGAPQGPPGAAPGPPPSGPILRPQNPGANPQLRSLLLNPAPPQTGVPPPQASLHHLQPPGAPTLLPPHQSMGQPQLGPQLLHPPPAQSWPTQLPQRAPLPGQMLLSGGPRGPVPQPGLQPSVMEDDILMDLI
notes: MED25, Mus musculus, endogenous lower Tail subunit of Mediator; only the N-terminal von Willebrand domain (aa 15-216) is seen in the map; The 3×FLAG tag stands on MED25 only in the MED25-FLAG cell line; in the MED19-FLAG line MED25 is untagged; Images from the datasets were combined for the final map; also called MED25-FLAG; source: endogenous, CH12 mouse B lymphoma nuclear extract; …
Regarding B2, the binding result in the test with MED16 and in the test with MED23 was “binds” throughout.

The values are drawn from publication PMC7921410, “Structure of mammalian Mediator complex reveals Tail module architecture and interaction with a conserved core” (Nature Communications, 2021).
